For one assay, the target named is HLA-B*45:06. The experiment in a line: IEDB peptide-MHC binding, purified MHC/competitive/fluorescence; filed as Kd, often an IC50 or EC50 that approximates it; ≥ and ≤ were set here for values at or beyond the usual limits of such assays. To be noted: source organism: Salmonella enterica subsp. enterica serovar Typhi.
The next assay concerns the target HLA-B*15:42. Described as above. To be noted: source organism: Salmonella enterica subsp. enterica serovar Typhi.
The target in assay [1] is HLA-B*40:01. The assay is described as above. As to conditions: source organism: Salmonella enterica subsp. enterica serovar Typhi.
Assay [2] has as its target HLA-C*04:01. The assay is described as above. As to conditions: source organism: Salmonella enterica subsp. enterica serovar Typhi.
Another assay deals with HLA-B*83:01. The assay is described as above. As to conditions: source organism: Salmonella enterica subsp. enterica serovar Typhi.
A further assay has as its target HLA-C*06:02. The experiment in a line: IEDB peptide-MHC binding, purified MHC/direct/fluorescence; filed as Kd, often an IC50 or EC50 that approximates it; ≥ and ≤ were set here for values at or beyond the usual limits of such assays.
The next assay deals with HLA-A*02:11. The description is as above.
The target in the next assay is HLA-B*57:01. Described as above.
For another assay, the target named is HLA-B*27:03. The assay is described as above.
Assay [3] addresses HLA-A*02:01. The description is as above.
Another assay has as its target HLA-B*07:02. The description is as above.
Assay [4] addresses HLA-B*35:01. The assay is described as above.
The target in the next assay is HLA-B*46:01. The assay is described as above.
In a further assay the target is HLA-A*02:03. The description is as above.
A further assay concerns the target HLA-B*15:01. The description is as above.
For a further assay, the target named is HLA-A*02:16. Described as above.
In another assay the target is HLA-A*03:01. Described as above.
For another assay, the target named is HLA-B*39:01. The assay is described as above. As to conditions: source organism: Vibrio vulnificus CMCP6.
Another assay deals with HLA-A*26:01. Described as above.
In the next assay the target is HLA-A*02:19. Described as above.
For a further assay, the target named is HLA-A*24:03. The description is as above.
The target of another assay is HLA-A*02:12. The assay is described as above.
A further assay addresses HLA-B*51:01. The assay is described as above. To be noted: source organism: Vibrio vulnificus CMCP6.
Assay [5] concerns the target HLA-C*04:01. Described as above.
Another assay deals with HLA-B*73:01. The experiment in a line: IEDB peptide-MHC binding, purified MHC/competitive/fluorescence; filed as Kd, often an IC50 or EC50 that approximates it; ≥ and ≤ were set here for values at or beyond the usual limits of such assays.
The target of the next assay is HLA-B*58:01. In words: IEDB peptide-MHC binding, purified MHC/direct/fluorescence; filed as Kd, often an IC50 or EC50 that approximates it; ≥ and ≤ were set here for values at or beyond the usual limits of such assays. To be noted: source organism: Stutzerimonas stutzeri.
In another assay the target is HLA-A*01:01. The assay is described as above. To be noted: source organism: Stutzerimonas stutzeri.
The target in the next assay is HLA-A*69:01. Described as above. As to conditions: source organism: Stutzerimonas stutzeri.
Assay [6] concerns the target HLA-B*40:01. Described as above. As to conditions: source organism: Stutzerimonas stutzeri.
The target in another assay is HLA-A*31:01. The assay is described as above. As to conditions: source organism: Stutzerimonas stutzeri.
A further assay addresses HLA-B*08:01. The assay is described as above. As to conditions: source organism: Stutzerimonas stutzeri.
A further assay concerns the target HLA-A*30:01. The description is as above. As to conditions: source organism: Stutzerimonas stutzeri.
In assay [7] the target is HLA-B*27:05. Described as above. To be noted: source organism: Stutzerimonas stutzeri.
Assay [8] concerns the target HLA-B*35:01. The experiment in a line: IEDB peptide-MHC binding, cellular MHC/competitive/fluorescence; ≥ and ≤ were set here for values at or beyond the usual limits of such assays. As to conditions: source organism: Mycobacterium tuberculosis H37Rv.
Another assay has as its target HLA-A*24:02. The experiment in a line: IEDB peptide-MHC binding, purified MHC/competitive/fluorescence; filed as Kd, often an IC50 or EC50 that approximates it; ≥ and ≤ were set here for values at or beyond the usual limits of such assays. To be noted: source organism: Campylobacter jejuni.
The next assay concerns the target HLA-C*07:02. The experiment in a line: IEDB peptide-MHC binding, purified MHC/direct/fluorescence; filed as Kd, often an IC50 or EC50 that approximates it; ≥ and ≤ were set here for values at or beyond the usual limits of such assays. As to conditions: source organism: Campylobacter jejuni.
The target in assay [9] is HLA-A*02:01. The experiment in a line: IEDB peptide-MHC binding, cellular MHC/competitive/fluorescence; ≥ and ≤ were set here for values at or beyond the usual limits of such assays. To be noted: source organism: Mycobacterium tuberculosis.
Another assay addresses HLA-B*18:01. The experiment in a line: IEDB peptide-MHC binding, purified MHC/direct/fluorescence; filed as Kd, often an IC50 or EC50 that approximates it; ≥ and ≤ were set here for values at or beyond the usual limits of such assays. As to conditions: source organism: Salmonella enterica subsp. enterica serovar Typhimurium.
The target of the next assay is HLA-B*15:17. Described as above. As to conditions: source organism: Salmonella enterica subsp. enterica serovar Typhimurium.
For assay [10], the target named is HLA-B*27:05. The experiment in a line: IEDB peptide-MHC binding, purified MHC/competitive/fluorescence; filed as Kd, often an IC50 or EC50 that approximates it; ≥ and ≤ were set here for values at or beyond the usual limits of such assays. To be noted: source organism: Influenza A virus (A/Waikato/7/2000(H3N2)).
The mark [11] stands for this setting: source organism: Vibrio vulnificus CMCP6.
Where [12] appears, read: source organism: Mammarenavirus lassaense.
Setting [13] is: source organism: Stutzerimonas stutzeri.
Setting [14] is: source organism: Salmonella enterica subsp. enterica serovar Typhimurium.

Our source for the Kd and IC50 values is the Immune Epitope Database (IEDB).

With AEFVFSCGI, the Kd (in general, the concentration at which binding is half-saturated) in the assay with HLA-B*45:06 was ≥ 5 µM; with HLA-B*15:42, ≥ 5 µM; with HLA-B*40:01 [1] it was 0.0084 µM; with HLA-C*04:01 [2] it was ≥ 5 µM; in the assay with HLA-B*83:01, ≥ 5 µM.

In the assay with HLA-C*06:02 (source organism: Aquifex aeolicus VF5), CRRLNTKYL gave a Kd of 0.173 µM.

EMSLADYLY: the Kd with HLA-A*02:11 (setting [11]) was ≥ 20 µM; with HLA-B*57:01 (setting [11]), ≥ 20 µM; with HLA-B*27:03 (setting [11]) it was ≥ 20 µM; in the assay with HLA-A*02:01 [3] (setting [11]), ≥ 20 µM; with HLA-B*07:02 (setting [11]), ≥ 20 µM; with HLA-B*35:01 [4] (setting [11]) it was 0.027 µM. Also, the Kd with HLA-B*46:01 (setting [11]) was ≥ 20 µM; in the assay with HLA-A*02:03 (setting [11]), ≥ 20 µM; with HLA-B*15:01 (setting [11]) it was 0.029 µM; with HLA-A*02:16 (setting [11]), ≥ 20 µM; with HLA-A*03:01 (setting [11]), ≥ 20 µM; with HLA-B*39:01, ≥ 20 µM. Besides, the Kd in the assay with HLA-A*26:01 (setting [11]), in the assay with HLA-A*02:19 (setting [11]), with HLA-A*24:03 (setting [11]), in the assay with HLA-A*02:12 (setting [11]) and with HLA-B*51:01 was ≥ 20 µM in each case.

Regarding FYADPKRYF, the dissociation constant Kd was ≥ 20 µM with HLA-C*04:01 [5] (setting [12]) and 0.008 µM with HLA-A*24:03 (setting [12]).

On to GRGQILLGK, for which the Kd with HLA-B*73:01 (setting [13]) was ≥ 20 µM; with HLA-B*58:01 it was ≥ 20 µM; in the assay with HLA-A*01:01, ≥ 20 µM; in the assay with HLA-A*69:01 it was ≥ 20 µM; in the assay with HLA-A*02:01 [3] (setting [13]), 5.95 µM; with HLA-B*07:02 (setting [13]) it was ≥ 20 µM. Further, the Kd is ≥ 20 µM with HLA-B*40:01 [6]; ≥ 20 µM with HLA-A*31:01; ≥ 20 µM with HLA-B*08:01; ≥ 20 µM in the assay with HLA-B*15:01 (setting [13]); ≥ 5 µM in the assay with HLA-A*30:01; ≥ 20 µM with HLA-A*26:01 (setting [13]). In the assay with HLA-B*27:05 [7], this sequence yielded a Kd of 0.321 µM.

With IPAEFLENF, the IC50 (usually the point on the concentration scale where inhibition reaches its midpoint) in the assay with HLA-B*35:01 [8] came out at 1 µM.

Sequence IPAKFLEGL displayed an IC50 in the assay with HLA-B*35:01 [8] of 7.1 µM.

With LYSRSFWFF, the Kd with HLA-A*24:02 is ≤ 0.0001 µM; in the assay with HLA-C*04:01 [5] (source organism: Campylobacter jejuni), ≥ 20 µM; with HLA-C*07:02, 0.206 µM.

Regarding NLLVTGFDT, the IC50 with HLA-A*02:01 [9] turned out to be 2.4 µM.

Sequence SRFLRRPAQ returned a Kd in the assay with HLA-B*73:01 (source organism: Burkholderia vietnamiensis G4) of 0.67 µM.

For the sequence TIPEALAAV, the IC50 with HLA-A*02:01 [9] turned out to be 2.8 µM.

In the case of WPVMQWLTA, the Kd was ≥ 20 µM with HLA-A*02:11 (setting [14]); ≥ 20 µM in the assay with HLA-B*57:01 (setting [14]); ≥ 20 µM with HLA-B*18:01; ≥ 20 µM with HLA-B*27:03 (setting [14]); ≥ 20 µM with HLA-A*02:01 [3] (setting [14]); 0.289 µM with HLA-B*07:02 (setting [14]). Besides, the Kd with HLA-B*35:01 [4] (setting [14]) is 0.024 µM; with HLA-B*46:01 (setting [14]), ≥ 20 µM; in the assay with HLA-A*02:03 (setting [14]), ≥ 20 µM; with HLA-B*15:01 (setting [14]), 8 µM; with HLA-A*02:16 (setting [14]), ≥ 20 µM; with HLA-A*03:01 (setting [14]), ≥ 20 µM. Further, the Kd with HLA-A*26:01 (setting [14]), with HLA-A*02:19 (setting [14]), with HLA-B*15:17 and with HLA-A*02:12 (setting [14]) was ≥ 20 µM throughout.

On to YRTLLMNEL, for which the Kd with HLA-B*27:05 [10] amounted to 0.0539 µM; in the assay with HLA-C*06:02 (source organism: Influenza A virus (A/Waikato/7/2000(H3N2))), 0.009 µM.
